In patent US20260022354, “TRANSPOSASES AND USES THEREOF” (Poseida Therapeutics, Inc., published 2026):

Biological target: T1, GFP1 Right TAL-PBx (synthetic)
T1 chain: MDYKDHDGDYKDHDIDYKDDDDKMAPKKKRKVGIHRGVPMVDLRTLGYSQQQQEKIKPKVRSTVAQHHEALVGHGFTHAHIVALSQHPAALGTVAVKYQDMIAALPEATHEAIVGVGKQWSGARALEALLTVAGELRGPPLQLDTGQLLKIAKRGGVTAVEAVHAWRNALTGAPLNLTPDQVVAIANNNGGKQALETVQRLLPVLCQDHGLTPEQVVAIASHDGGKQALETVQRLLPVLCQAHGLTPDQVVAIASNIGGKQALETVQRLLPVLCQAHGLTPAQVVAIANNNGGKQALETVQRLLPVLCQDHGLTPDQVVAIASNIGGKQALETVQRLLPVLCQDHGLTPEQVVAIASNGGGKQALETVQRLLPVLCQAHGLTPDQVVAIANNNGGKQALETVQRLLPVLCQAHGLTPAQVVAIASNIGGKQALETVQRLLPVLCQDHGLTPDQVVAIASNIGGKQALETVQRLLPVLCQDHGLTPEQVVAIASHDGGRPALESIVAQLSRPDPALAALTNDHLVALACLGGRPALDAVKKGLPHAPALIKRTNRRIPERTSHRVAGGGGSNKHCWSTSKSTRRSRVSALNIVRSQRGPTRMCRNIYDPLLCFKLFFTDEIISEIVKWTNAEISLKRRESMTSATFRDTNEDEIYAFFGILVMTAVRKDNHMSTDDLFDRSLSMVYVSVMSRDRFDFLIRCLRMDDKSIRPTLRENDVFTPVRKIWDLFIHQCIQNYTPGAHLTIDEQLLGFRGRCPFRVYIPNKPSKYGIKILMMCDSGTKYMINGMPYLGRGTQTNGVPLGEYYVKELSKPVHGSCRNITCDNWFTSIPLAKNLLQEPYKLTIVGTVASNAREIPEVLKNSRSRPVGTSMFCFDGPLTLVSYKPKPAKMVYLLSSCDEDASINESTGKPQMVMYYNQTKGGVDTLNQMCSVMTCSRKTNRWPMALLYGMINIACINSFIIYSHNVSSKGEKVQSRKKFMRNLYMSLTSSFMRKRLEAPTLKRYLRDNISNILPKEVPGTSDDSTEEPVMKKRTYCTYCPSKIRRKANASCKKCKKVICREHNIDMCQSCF
Assay: cell_activity; HEK293T
Conditions: tags: PBx fusion; chain copies: 2 (palindromic half-sites; inferred)
Procedure: Each reporter plasmid and donor plasmid were cotransfected into HEK293T cells with the GFP1 Right TAL-PBx expression plasmid (SEQ ID No. 77). […] HEK293T cells were plated in 24 well plates in 500 μL of DMEM medium supplemented with 10% FBS. The following day, a transfection mixture containing 50 ng of the TAL-ssSPB expression vector, 225 ng of the reporter plasmid, 225 ng of donor plasmid and 1 μL of JetPrime transfection reagent in a total volume of 50 μL of JetPrime buffer were assembled. The mixture was added to the HEK293T cells and the cells were incubated for four days at 37° C. at 5% CO2, splitting the cells 1:6 on day one. The percentage of on-target site-specific transposition positive cells for the various constructs were determined by FACS analysis on day 4.
When the reporter and donor plasmids are co-transfected into cells along with TAL-PBx, TAL-PBx catalyzes the excision of the transposon from the donor plasmid and its site-specific integration into the TTAA target site of the reporter plasmid. Following site-specific transposition, transcription, splicing, and translation, a reconstituted GFP coding sequence is produced (DNA SEQ ID No. 75; Amino acid SEQ ID No. 76) and fluorescence can be detected. The percentage of on-target site-specific transposition positive cells for the various spacer length constructs were determined by FACS analysis and the results are shown in Table 9.

B1: GFP1 Right 12bp TTTAAA (dsDNA)
DNA 1: TGCAGATGAACGCAATCTCCGGTTTAAATACTGACTGAAGTTCATCTGCA
DNA 2: TGCAGATGAACTTCAGTCAGTATTTAAACCGGAGATTGCGTTCATCTGCA
activity: 30.8 % GFP+ cells

B2: GFP1 Right 12bp CTTAAA (dsDNA)
DNA 1: TGCAGATGAACGCAATCTCCGGCTTAAATACTGACTGAAGTTCATCTGCA
DNA 2: TGCAGATGAACTTCAGTCAGTATTTAAGCCGGAGATTGCGTTCATCTGCA
activity: 34.6 % GFP+ cells

B3: GFP1 Right 13bp CTTAAC (dsDNA)
DNA 1: TGCAGATGAACGCAATCTCACGGCTTAACTACTGACCTGAAGTTCATCTGCA
DNA 2: TGCAGATGAACTTCAGGTCAGTAGTTAAGCCGTGAGATTGCGTTCATCTGCA
activity: 20.9 % GFP+ cells

B4: GFP1 Right 13bp TTTAAA (dsDNA)
DNA 1: TGCAGATGAACGCAATCTCACGGTTTAAATACTGACCTGAAGTTCATCTGCA
DNA 2: TGCAGATGAACTTCAGGTCAGTATTTAAACCGTGAGATTGCGTTCATCTGCA
activity: 27 % GFP+ cells

B5: GFP1 Right 13bp CTTAAA (dsDNA)
DNA 1: TGCAGATGAACGCAATCTCACGGCTTAAATACTGACCTGAAGTTCATCTGCA
DNA 2: TGCAGATGAACTTCAGGTCAGTATTTAAGCCGTGAGATTGCGTTCATCTGCA
activity: 32.8 % GFP+ cells

B6: GFP1 Right 13bp TTTAAG (dsDNA)
DNA 1: TGCAGATGAACGCAATCTCACGGTTTAAGTACTGACCTGAAGTTCATCTGCA
DNA 2: TGCAGATGAACTTCAGGTCAGTACTTAAACCGTGAGATTGCGTTCATCTGCA
activity: 32.2 % GFP+ cells

B7: GFP1 Right 13bp CTTAAG (dsDNA)
DNA 1: TGCAGATGAACGCAATCTCACGGCTTAAGTACTGACCTGAAGTTCATCTGCA
DNA 2: TGCAGATGAACTTCAGGTCAGTACTTAAGCCGTGAGATTGCGTTCATCTGCA
activity: 24.7 % GFP+ cells
